Tests used:
Assay in all cases: EMSA
[1] = target: TRF2ΔBΔTRFH (UniProt Q15554 288-542)
[2] = target: TRF2ΔB (UniProt Q15554 87-542)
[3] = target: TRF2ΔBΔHinge (UniProt Q15554 87-287+484-542, internal_change)
[4] = target: Myc-TRF2ΔB (RRL) (UniProt Q15554 87-542)
[5] = target: TRF2ΔB-F59A (UniProt Q15554 87-542, F101A)
[6] = target: Myc-TRF2ΔBΔTRFH (RRL) (UniProt Q15554 288-542)
[7] = target: Myc-TRF2ΔBΔHinge (RRL) (UniProt Q15554 87-287+484-542, internal_change)

Measured: binding result

B1: 4-repeat telomeric probe (dsDNA)
DNA 1: GTACCCGGGGATCGTCGACTCTAGAGGGGCCCTAACCCTAACCCTAACCCTAACCCGGGCTCGAATTCGATCCTCTAGAGTCGACCTGCAGGCATGCAAGCU
DNA 2: AGCTTGCATGCCTGCAGGTCGACTCTAGAGGATCGAATTCGAGCCCGGGTTAGGGTTAGGGTTAGGGTTAGGGCCCCTCTAGAGTCGACGATCCCCGGGUAC
modifications: Cy5.5-dUTP incorporated by Klenow fill-in (U near both 3' ends)
binds: all assays above

From article doi:10.1101/2024.06.27.600884
